Series [1] in a line: cell surface biotinylation, Western blot quantitation. The following applies: glycan lost; control: wild type.
A short description of series [2]: domain-selective surface biotinylation of polarized cells. The following applies: glycan lost; control: wild type.

“voltage-gated sodium channel β2 subunit: N42,66,74Q”: the localisation_or_trafficking result in series [1] is reported as “decreases”. Moreover, the “other: apical versus basolateral polarity of surface protein” value in series [2] is reported as “no change”.
